Measured values reported in the supplement of paper PMC12764529.

Assay: folding stability dG unfold (combined trypsin and chymotrypsin); higher = more stable
Procedure: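 Folding stability of de novo designed mini-proteins (<80 aa, no Cys; designed by TrROS, TrMRF, ProteinMPNN and the joint model) was measured by cDNA display proteolysis with trypsin and chymotrypsin. Each protease was used at 11 concentrations in a threefold dilution series plus a no-protease condition. K50 was inferred by Bayesian fitting of sequencing counts, and dG unfold was derived against a sequence-predicted unfolded-state K50 (Tsuboyama et al. method). Sequences shown include variable-length N-terminal GS-type padding (SAGGSAGG...) inside a display construct carrying a PA tag. Rows were kept only if the AF2 dimer inter-PAE was >15, to exclude likely homo-oligomers.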

Row | Sequence | folding stability dG unfold
1 | SAGGSAGGSAGGSPMLLVRVKKTNKWISLEEALEEAEKKGEEIEIEEVEVVELPPGQEPSAGGSAGGSAGGS [r4_479_TrROS_Hall] | < -1 kcal/mol
2 | SAGGSAGGSAGGSQNEVQIPFNNMPPQQARNIADEALDKNKDIENIEVERDDGMFKVKVSAGGSAGGSAGGS [r4_330_TrROS] | < -1 kcal/mol
3 | SAGGSAGGSAGGSRKINIFFDDPEQARKFAREIRNEGLPPEDMPIKVEITPIPPEDMGASAGGSAGGSAGGS [r4_281_TrROS] | < -1 kcal/mol
4 | SAGGSAGGSAGGSTPSGTLKEVSEEVEPDGIRITTTTYSLPNPGVFKTVVTVEPEAREESAGGSAGGSAGGS [r4_163_JUSTAS] | < -1 kcal/mol
5 | SAGGSAGGSAGGSVKTPEGVEVAPDEPVEERVEHPPVARPVKVTLYALPNSNEYSEEIASAGGSAGGSAGGS [r4_13_JUSTAS] | < -1 kcal/mol
6 | SAGGSAGGSAGGSVVPPGAKVKVTLEGEEKVVEADSLSEIGEIKIGDKWVKVKKIEVEGSAGGSAGGSAGGS [r4_214_TrMRF] | < -1 kcal/mol
7 | SAGGSAGGSAGGTIKELAKEAAKKNPGWVPIRIPLPNGNPWKIRVQVDEPGKNRIEIEPSAGGSAGGSAGGS [r10_395_TrROS] | < -1 kcal/mol
8 | SAGGSAGGSAGGTISFPTSSGLIKVEDMTIEEAKEKLKKENPNAKVIKLPTPNVYLIEVKSAGGSAGGSAGG [r7_370_JUSTAS] | < -1 kcal/mol
9 | SAGGSAGGSAGGTVEELAKQIQEEWQENGFKVEKVEVEDGTIKIEWKNGRQREIPFEKGSAGGSAGGSAGGS [r10_169_TrROS] | < -1 kcal/mol
10 | SAGGSAGGSAGGWYISIEPKNKKEKTIMIPPGDPDILEELADNGDRVSIFDPKNGKEFKVSAGGSAGGSAGG [r7_430_TrROS] | < -1 kcal/mol
11 | SAGGSAGGSAGKIRIDARPNGNWRAHYPGGKEHEFNSPDDIKDELEKKFPNFDIIEIEPWSAGGSAGGSAGG [r11_806_TrROS] | < -1 kcal/mol
12 | SAGGSAGGSAGKKIEIDEANPEENMYRISFPDKRTHQFDSAEDLKEQIPPGIPVEIEPLKSAGGSAGGSAGG [r17_295_TrROS] | < -1 kcal/mol
13 | SAGGSAGGSAGKTIMIRDPEALKKLPENQKIRIPDGKPFKIKKVEYVEENGWHRFTIKPESAGGSAGGSAGG [r11_316_TrROS] | < -1 kcal/mol
14 | SAGGSAGGSAGLNVGDVVVEVEAGTEYEFLIPNPAKLVKVKVVPDPTTNELKVEEAKVYDLKSAGGSAGGSA [r18_222_TrMRF] | < -1 kcal/mol
15 | SAGGSAGGSAGMLYRALVPHPDGSFSTALSEDARELERELLEATGIPPENIKIEPIPLETSAGGSAGGSAGG [r17_169_TrMRF] | < -1 kcal/mol
16 | SAGGSAGGSAGMNKKVVATFTDPNSDTTTTLVGPEEAFKSQFPPETASYSLTTVPEEALLSAGGSAGGSAGG [r11_334_JUSTAS] | < -1 kcal/mol
17 | SAGGSAGGSAGMPFKITKVTPDGKITIYDGGNPITIPPGSDHIKIEFGGGTKEIKIPPGMSAGGSAGGSAGG [r11_647_TrROS] | < -1 kcal/mol
18 | SAGGSAGGSAGMTTYEGTDPEELREAVEAEAKARGVEIEITSVTTSPDGKYTLDVKVTPPSAGGSAGGSAGG [r11_304_JUSTAS] | < -1 kcal/mol
19 | SAGGSAGGSAGNIEVNGDRIKIRFEGGHEFTFPNLPPGKPIEFKFNNQPFRIRDVEVEPPSAGGSAGGSAGG [r11_16_TrROS] | < -1 kcal/mol

Row | Sequence | folding stability dG unfold
20 | SAGGSAGGSAGPDDFVTLTETIVEEIDPNLAELPPEVAERLVKEGVKVIEKVLTKVAPPSLLSAGGSAGGSA [r18_127_JUSTAS] | < -1 kcal/mol
21 | SAGGSAGGSAGPEVRPAPTPDGREVWVLRRTRRHPGPGDGVVVEEEVVPADDPEALRRRASAGGSAGGSAGG [r11_967_TrMRF] | < -1 kcal/mol
22 | SAGGSAGGSAGPKEPIYYRLRIEPPNGETREFEFPVGASVEDIAKEFNIPPGGRVELEPVSAGGSAGGSAGG [r11_340_TrROS] | < -1 kcal/mol
23 | SAGGSAGGSAGPKPVMWRIEFDNPDNGQKQEITIMIPPDDPEQAEEIAKKIGPNVKIEPVSAGGSAGGSAGG [r11_250_TrROS] | < -1 kcal/mol
24 | SAGGSAGGSAGPKWKTINFPIDLKPGQSAKEIAKKFAEANPDMEIDGFNPERGWASITVPSAGGSAGGSAGG [r11_465_TrROS] | < -1 kcal/mol
25 | SAGGSAGGSAGPPFEVVGVSRHGDSVTVLARNPDSDELVASTFTNGVIGSTAVIPSEEVGSAGGSAGGSAGG [r11_19_TrMRF] | < -1 kcal/mol
26 | SAGGSAGGSAGPPVPKLFKVKEVTYHPGPKTVTVKTENGETITVPPGVAENVPPGGYLAASAGGSAGGSAGG [r11_124_TrMRF] | < -1 kcal/mol
27 | SAGGSAGGSAGRMYIIRNPGKKVIIPRGWMPKLQKKNPNVEIEEFESPEDADKAQDKALDSAGGSAGGSAGG [r11_60_TrROS] | < -1 kcal/mol
28 | SAGGSAGGSAGSMTVLEEEEIELPDDVVLTRLKVPGEELIRIEIPEEGKEEIIPASEWPGSAGGSAGGSAGG [r17_286_JUSTAS] | < -1 kcal/mol
29 | SAGGSAGGSAGSMVLESEEPIPETGEPVLVKTTLSEEPGRERTIVTTYRDGKPLSTTVELSAGGSAGGSAGG [r11_631_JUSTAS] | < -1 kcal/mol
30 | SAGGSAGGSAGSPPDQTVTITTTVVTTETTTYPGTPGVTVPRTVVTTVPVTLPVTDPALLSAGGSAGGSAGG [r11_734_JUSTAS] | < -1 kcal/mol
31 | SAGGSAGGSAGSPSEVKYSEEVLEEPLPGGVPYRLVVRTRTVLEGDKVVEEEEETELVLLSAGGSAGGSAGG [r11_35_JUSTAS] | < -1 kcal/mol
32 | SAGGSAGGSAGTEISLPSSLPDRPIETVPVEIVSPGPGDPRRETINVTRTPDRVLAVDRRSAGGSAGGSAGG [r11_21_JUSTAS] | < -1 kcal/mol
33 | SAGGSAGGSAGTIRNPGMEFTIKKDPNDKVVVKMNDQERTIRVGKPIYFPGGMPFRIEPASAGGSAGGSAGG [r11_147_TrROS] | < -1 kcal/mol
34 | SAGGSAGGSAGVFWRIRMPGHTIPIPIEGDLNEAKDYIRDEMREHHGEPIDPDNIEIEIVSAGGSAGGSAGG [r11_1028_TrROS] | < -1 kcal/mol
35 | SAGGSAGGSAGVKPGQTIEVPGAKITVEEVDGKLVLKVEELPPPPAPEVEVKRYVSEEDLSAGGSAGGSAGG [r11_534_TrROS_Hall] | < -1 kcal/mol
36 | SAGGSAGGSAGWIKEALRDMPPGKPRRIPIRNPDGNPIKIRIKVDRDPENGKYEVPIEIVSAGGSAGGSAGG [r11_343_TrROS] | < -1 kcal/mol
37 | SAGGSAGGSAGYIMIKSPEMAEEMAKPGYEIEVEPVPPKDINNGDPNDTMYIIEIKPPGKSAGGSAGGSAGG [r11_168_TrROS] | < -1 kcal/mol
38 | SAGGSAGGSAINLADIHEVEVEEIPEDPTAVYRVRARLPEPGVPVDFLLVRFPDGSVRFYGSAGGSAGGSAG [r3_234_TrMRF] | < -1 kcal/mol

Row | Sequence | folding stability dG unfold
39 | SAGGSAGGSAKIKVEWEQHPEGYNLVKVEIPNPDNGKKKKVEGPFDSLEDAEDEAKELLKKSAGGSAGGSAG [r3_174_TrROS] | < -1 kcal/mol
40 | SAGGSAGGSAKKIEIDPERDPNGMHLVEVTRRDPGNGKKKDIPFNVNPGKMTPEEIKDLAKSAGGSAGGSAG [r3_127_TrROS] | < -1 kcal/mol
41 | SAGGSAGGSALLPLPEDAVLEVPFPGTEEEAEVFAAELAKAFPVGEITLEKEPTSYRLVVRSAGGSAGGSAG [r3_73_TrMRF] | < -1 kcal/mol
42 | SAGGSAGGSAMNPSEPYVTLTETVVEEAEEVVETFPGYGVYKYTETKLKTTVKVTTVPKSLLSAGGSAGGSA [r18_137_JUSTAS] | < -1 kcal/mol
43 | SAGGSAGGSAMPEEEKPPIVRTVVLQADGEPIVLTSKPDEEIKLPPSLANAVVLEEEVSPGLSAGGSAGGSA [r18_415_JUSTAS] | < -1 kcal/mol
44 | SAGGSAGGSAMPVVEIGLEMEPYEPEAGGKLMLVPIKDNLLPEHALAAARLLEPLGVVTAPSAGGSAGGSAG [r3_157_TrMRF] | < -1 kcal/mol
45 | SAGGSAGGSANFRILVDPPTNKIWIFDPPGYVYKIKVDPKEGKMKHEPVPIPPDDLPPNAFKSAGGSAGGSA [r18_59_TrROS] | < -1 kcal/mol
46 | SAGGSAGGSANLEAAKKLFKDYPPGEEREIPIRVRTPGKPVPFRIKIYYPEDGNMKIDIEPYSAGGSAGGSA [r18_493_TrROS] | < -1 kcal/mol
47 | SAGGSAGGSAPKLKFETEPYPNGGYYHKVKIDLEGPKIPITIPVNNNQPMPIEDFAKHILKKSAGGSAGGSA [r18_111_TrROS] | < -1 kcal/mol
48 | SAGGSAGGSAPMRMIPFRLPAPPGETIEIKFPNGKKHNISVEPHPDGWFHIMVNGGMIWIPASAGGSAGGSA [r18_372_TrROS] | < -1 kcal/mol
49 | SAGGSAGGSAPQRFNIVLEVKEPETGKTKVVKRTLSSEEEALKKIPEGLEVKKITVLPPDVPLSAGGSAGGS [r12_208_JUSTAS] | < -1 kcal/mol
50 | SAGGSAGGSARDALKNIKHVEIEHNPPNNRGTIRIQPPNGKQIKFEFDSPNELLKKAGIEPSAGGSAGGSAG [r3_36_TrROS] | < -1 kcal/mol
51 | SAGGSAGGSASEIDELLAAGYTVLVKPPDGSEKVIKPGDTASNLDETFNLSPDAEFVIEPKSAGGSAGGSAG [r3_216_JUSTAS] | < -1 kcal/mol
52 | SAGGSAGGSASMKIAKEVRTDPNSDVTYRVEVYRLPGPNVLLVETTYPEGVELSLVEVDPPSAGGSAGGSAG [r3_123_JUSTAS] | < -1 kcal/mol
53 | SAGGSAGGSATPTPGDDYVYLTEESPDGRTIRYPETGSTIYIPADVPVNLKVNPVRGPDGVPESAGGSAGGS [r20_105_JUSTAS] | < -1 kcal/mol
54 | SAGGSAGGSAVLRSALDRPVPVLLLTVPRDEVPEEEIRSLLPPELAEQFLKTAPKDSVIVASAGGSAGGSAG [r3_326_TrMRF] | < -1 kcal/mol
55 | SAGGSAGGSAYKLKDITMRRMPNGYHEVEIKVDNGKKIDVTIPPDNPGRSIEEFAKEVLDNSAGGSAGGSAG [r3_368_TrROS] | < -1 kcal/mol
56 | SAGGSAGGSFEVEPTPDHVSIRYYNPDGNPPVSATVDPPEGDIDFEHPDKKQEFPLKPGDTLISAGGSAGGS [r12_536_TrROS] | < -1 kcal/mol
57 | SAGGSAGGSGKKYMIDSPEAMNDMRDAGIPPKKIEPEPYPIPANDNPGFKDMPWPMTMYRVKVSAGGSAGGS [r12_78_TrROS] | < -1 kcal/mol
